Test results: paper PMC11214941

Legend:
[1] = CHX chase immunoblot, protein remaining; settings: glycan lost; control: untreated
[2] = IF of GFP-EREG in HEK293, membrane localisation; settings: glycan lost; control: GFP-EREG-WT, untreated
[3] = ELISA of EREG in HEK293 conditioned medium; settings: glycan lost; control: EREG-WT

Substance	degradation_or_half_life [1]	localisation_or_trafficking [2]	expression_or_secretion [3]
Epiregulin (EREG): NGI-1	decreases	decreases	
Epiregulin (EREG): tunicamycin	decreases	decreases	
Epiregulin (EREG): N47Q		decreases	decreases
